The values that follow come from CN117396506A (NOVARTIS AG, dated 2024).

The target in one assay is T1, 重组人IL-18 (human, UniProt Q14116 37-193).
T1 construct: In the LPS/IL-12 assays the IL-18 is the native cytokine made by the blood cells; also called huIL-18; human IL-18
Put plainly: SET, single-target binding assay.

The next assay concerns the target T2, 重组人IL-1β (human, UniProt P01584 117-269).
T2 construct: In the LPS/IL-12 assays the IL-1β is the native cytokine made by the blood cells; also called huIL-1β; IL-1b
Put plainly: solution equilibrium titration (SET), single-target binding assay, MSD ECL read-out; mean KD.

One may read the Kd as the equilibrium constant for the complex coming apart.

B1: mAb1 (antibody, human IgG1, lambda, L234A L235A, V domains shown)
VH: EVQLVQSGAEVKKPGSSVKVSCKASGGTFKSYAISWVRQAPGQGLEWMGNIIPMTGQTYYAQKFQGRVTITADESTSTAYMELSSLRSEDTAVYYCARAAYHPLVFDNWGQGTLVTVSS
VL: DIVLTQPPSVSGAPGQRVTISCSGSSSNIGNHYVNWYQQLPGTAPKLLIYRNNHRPSGVPDRFSGSKSGTSASLAITGLQSEDEADYYCQSWDYSGFSTVFGGGTKLTVLG
notes: Human anti-IL-18 antibody, bivalent mAb; also called IL-18抗体mAb1
Take B1: the binding result with 重组人IL-18 is given as “binds”.

B2: mAb2 (antibody, human IgG1, kappa, V domains shown)
VH: QVQLVESGGGVVQPGRSLRLSCAASGFTFSVYGMNWVRQAPGKGLEWVAIIWYDGDNQYYADSVKGRFTISRDNSKNTLYLQMNGLRAEDTAVYYCARDLRTGPFDYWGQGTLVTVSS
VL: EIVLTQSPDFQSVTPKEKVTITCRASQSIGSSLHWYQQKPDQSPKLLIKYASQSFSGVPSRFSGSGSGTDFTLTINSLEAEDAAAYYCHQSSSLPFTFGPGTKVDIKR
notes: Human anti-IL-1β antibody, bivalent mAb; also called IL-1β抗体mAb2
Turning to B2, in the assay with 重组人IL-1β, the Kd turned out to be 0.6 pM.
